Measured values from IntAct's records for PubMed 28062662.

B1: Glutaryl-CoA dehydrogenase, mitochondrial (Homo sapiens), Q92947 (parent)
chain: MALRGVSVRLLSRGPGLHVLRTWVSSAAQTEKGGRTQSQLAKSSRPEFDWQDPLVLEEQLTTDEILIRDTFRTYCQERLMPRILLANRNEVFHREIISEMGELGVLGPTIKGYGCAGVSSVAYGLLARELERVDSGYRSAMSVQSSLVMHPIYAYGSEEQRQKYLPQLAKGELLGCFGLTEPNSGSDPSSMETRAHYNSSNKSYTLNGTKTWITNSPMADLFVVWARCEDGCIRGFLLEKGMRGLSAPRIQGKFSLRASATGMIIMDGVEVPEENVLPGASSLGGPFGCLNNARYGIAWGVLGASEFCLHTARQYALDRMQFGVPLARNQLIQKKLADMLTEITLGLHACLQLGRLKDQDKAAPEMVSLLKRNNCGKALDIARQARDMLGGNGISDEYHVIRHAMNLEAVNTYEGTHDIHALILGRAITGIQAFTASK
partner: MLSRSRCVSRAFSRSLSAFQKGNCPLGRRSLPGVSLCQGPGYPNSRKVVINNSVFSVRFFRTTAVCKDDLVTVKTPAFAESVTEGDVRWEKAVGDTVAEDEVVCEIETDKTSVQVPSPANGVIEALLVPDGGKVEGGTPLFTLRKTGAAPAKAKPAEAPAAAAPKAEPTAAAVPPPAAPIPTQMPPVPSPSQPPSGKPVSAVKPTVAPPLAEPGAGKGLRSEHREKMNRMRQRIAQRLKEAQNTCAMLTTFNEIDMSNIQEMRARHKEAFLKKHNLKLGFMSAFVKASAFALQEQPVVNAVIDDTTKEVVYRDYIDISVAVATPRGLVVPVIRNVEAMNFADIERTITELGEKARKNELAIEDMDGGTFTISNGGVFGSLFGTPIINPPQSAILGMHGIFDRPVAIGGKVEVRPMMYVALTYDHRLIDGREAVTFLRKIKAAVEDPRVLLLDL

Variants of: B1
Conditions: with odo2_human DLST

Row | Variant | effect of a mutation on the interaction
1 | MALRGVSVRLLSRGPGLHVLRTWVSSAAQTEKGGRTQSQLAKSSRPEFDWQDPLVLEEQLTTDEILIRDTFRTYCQERLMPRILLANRNEVFHREIISEMGELGVLGPTIKGHGCAGVSSVAYGLLARELERVDSGYRSAMSVQSSLVMHPIYAYGSEEQRQKYLPQLAKGELLGCFGLTEPNSGSDPSSMETRAHYNSSNKSYTLNGTKTWITNSPMADLFVVWARCEDGCIRGFLLEKGMRGLSAPRIQGKFSLRASATGMIIMDGVEVPEENVLPGASSLGGPFGCLNNARYGIAWGVLGASEFCLHTARQYALDRMQFGVPLARNQLIQKKLADMLTEITLGLHACLQLGRLKDQDKAAPEMVSLLKRNNCGKALDIARQARDMLGGNGISDEYHVIRHAMNLEAVNTYEGTHDIHALILGRAITGIQAFTASK [Y113H] | decreasing interaction strength
2 | MALRGVSVRLLSRGPGLHVLRTWVSSAAQTEKGGRTQSQLAKSSRPEFDWQDPLVLEEQLTTDEILIRDTFRTYCQERLMPRILLANRNEVFHREIISEMGELGVLGPTIKGYGCARVSSVAYGLLARELERVDSGYRSAMSVQSSLVMHPIYAYGSEEQRQKYLPQLAKGELLGCFGLTEPNSGSDPSSMETRAHYNSSNKSYTLNGTKTWITNSPMADLFVVWARCEDGCIRGFLLEKGMRGLSAPRIQGKFSLRASATGMIIMDGVEVPEENVLPGASSLGGPFGCLNNARYGIAWGVLGASEFCLHTARQYALDRMQFGVPLARNQLIQKKLADMLTEITLGLHACLQLGRLKDQDKAAPEMVSLLKRNNCGKALDIARQARDMLGGNGISDEYHVIRHAMNLEAVNTYEGTHDIHALILGRAITGIQAFTASK [G117R] | increasing interaction strength
3 | MALRGVSVRLLSRGPGLHVLRTWVSSAAQTEKGGRTQSQLAKSSRPEFDWQDPLVLEEQLTTDEILIRDTFRTYCQERLMPRILLANRNEVFHREIISEMGELGVLGPTIKGYGCAGVSSVAYGLLARELERVDSGYRSAMSVQSSLVMHPIYAHGSEEQRQKYLPQLAKGELLGCFGLTEPNSGSDPSSMETRAHYNSSNKSYTLNGTKTWITNSPMADLFVVWARCEDGCIRGFLLEKGMRGLSAPRIQGKFSLRASATGMIIMDGVEVPEENVLPGASSLGGPFGCLNNARYGIAWGVLGASEFCLHTARQYALDRMQFGVPLARNQLIQKKLADMLTEITLGLHACLQLGRLKDQDKAAPEMVSLLKRNNCGKALDIARQARDMLGGNGISDEYHVIRHAMNLEAVNTYEGTHDIHALILGRAITGIQAFTASK [Y155H] | decreasing interaction strength
4 | MALRGVSVRLLSRGPGLHVLRTWVSSAAQTEKGGRTQSQLAKSSRPEFDWQDPLVLEEQLTTDEILIRDTFRTYCQERLMPRILLANRNEVFHLEIISEMGELGVLGPTIKGYGCAGVSSVAYGLLARELERVDSGYRSAMSVQSSLVMHPIYAYGSEEQRQKYLPQLAKGELLGCFGLTEPNSGSDPSSMETRAHYNSSNKSYTLNGTKTWITNSPMADLFVVWARCEDGCIRGFLLEKGMRGLSAPRIQGKFSLRASATGMIIMDGVEVPEENVLPGASSLGGPFGCLNNARYGIAWGVLGASEFCLHTARQYALDRMQFGVPLARNQLIQKKLADMLTEITLGLHACLQLGRLKDQDKAAPEMVSLLKRNNCGKALDIARQARDMLGGNGISDEYHVIRHAMNLEAVNTYEGTHDIHALILGRAITGIQAFTASK [R94L] | increasing interaction strength
5 | MALRGVSVRLLSRGPGLHVLRTWVSSAAQTEKGGRTQSQLAKSSRPEFDWQDPLVLEEQLTTDEILIRDTFRTYCQERLMPRILLANRNEVFHREIISEMGELGVLGPTIKGYGCAGVSSVAYGLLARELERVDSGYRSAMSVQSSLVMHPIYAYGSEEQQQKYLPQLAKGELLGCFGLTEPNSGSDPSSMETRAHYNSSNKSYTLNGTKTWITNSPMADLFVVWARCEDGCIRGFLLEKGMRGLSAPRIQGKFSLRASATGMIIMDGVEVPEENVLPGASSLGGPFGCLNNARYGIAWGVLGASEFCLHTARQYALDRMQFGVPLARNQLIQKKLADMLTEITLGLHACLQLGRLKDQDKAAPEMVSLLKRNNCGKALDIARQARDMLGGNGISDEYHVIRHAMNLEAVNTYEGTHDIHALILGRAITGIQAFTASK [R161Q] | increasing interaction strength
6 | MALRGVSVRLLSRGPGLHVLRTWVSSAAQTEKGGRTQSQLAKSSRPEFDWQDPLVLEEQLTTDEILIRDTFRTYCQERLMPRILLANRNEVFHREIISEMGELGVLGPTIKGYGCAGVSSVAYGLLARELERVDSGYRSAMSVQSSLVMHPIYAYGSEEQRQKYLPQLAKGELLGCFGLTEPNSGSDPSSMETRAHYNSSNKSYTLNGTKTWITNSPMADLFVVWARCEDGCIRGFLLEKGMRGLSALRIQGKFSLRASATGMIIMDGVEVPEENVLPGASSLGGPFGCLNNARYGIAWGVLGASEFCLHTARQYALDRMQFGVPLARNQLIQKKLADMLTEITLGLHACLQLGRLKDQDKAAPEMVSLLKRNNCGKALDIARQARDMLGGNGISDEYHVIRHAMNLEAVNTYEGTHDIHALILGRAITGIQAFTASK [P248L] | increasing interaction strength
7 | MALRGVSVRLLSRGPGLHVLRTWVSSAAQTEKGGRTQSQLAKSSRPEFDWQDPLVLEEQLTTDEILIRDTFRTYCQERLMPRILLANRNEVFHREIISEMGELGVLGPTIKGYGCAGVSSVAYGLLARELERVDSGYRSAMSVQSSLVMHPIYAYGSEEQRQKYLPQLAKGELLGCFGLTEPNSGSDPSSMETRAHYNSSNKSYTLNGTKTWITNSLMADLFVVWARCEDGCIRGFLLEKGMRGLSAPRIQGKFSLRASATGMIIMDGVEVPEENVLPGASSLGGPFGCLNNARYGIAWGVLGASEFCLHTARQYALDRMQFGVPLARNQLIQKKLADMLTEITLGLHACLQLGRLKDQDKAAPEMVSLLKRNNCGKALDIARQARDMLGGNGISDEYHVIRHAMNLEAVNTYEGTHDIHALILGRAITGIQAFTASK [P217L] | decreasing interaction strength
8 | MALRGVSVRLLSRGPGLHVLRTWVSSAAQTEKGGRTQSQLAKSSRPEFDWQDPLVLEEQLTTDEILIRDTFRTYCQERLMPRILLANRNEVFHREIISEMGELGVLGPTIKGYGCAGVLSVAYGLLARELERVDSGYRSAMSVQSSLVMHPIYAYGSEEQRQKYLPQLAKGELLGCFGLTEPNSGSDPSSMETRAHYNSSNKSYTLNGTKTWITNSPMADLFVVWARCEDGCIRGFLLEKGMRGLSAPRIQGKFSLRASATGMIIMDGVEVPEENVLPGASSLGGPFGCLNNARYGIAWGVLGASEFCLHTARQYALDRMQFGVPLARNQLIQKKLADMLTEITLGLHACLQLGRLKDQDKAAPEMVSLLKRNNCGKALDIARQARDMLGGNGISDEYHVIRHAMNLEAVNTYEGTHDIHALILGRAITGIQAFTASK [S119L] | increasing interaction strength
9 | MALRGVSVRLLSRGPGLHVLRTWVSSAAQTEKGGRTQSQLAKSSRPEFDWQDPLVLEEQLTTDEILIRDTFRTYCQERLMPRILLANRNEVFHREIISEMGELGVLGPTIKGYGCAGVSSVAYGLLARELERVDSGYRSAMSVQSSLVMHPIYAYGSEEQRQKYLPQLAKGELLGCFGLTEPNSGSDPSSMETRAHYNSSNKSYTLNGTKTWITNSPMADLFVVWARCEDGCIRGFLLEKGMRCLSAPRIQGKFSLRASATGMIIMDGVEVPEENVLPGASSLGGPFGCLNNARYGIAWGVLGASEFCLHTARQYALDRMQFGVPLARNQLIQKKLADMLTEITLGLHACLQLGRLKDQDKAAPEMVSLLKRNNCGKALDIARQARDMLGGNGISDEYHVIRHAMNLEAVNTYEGTHDIHALILGRAITGIQAFTASK [G244C] | increasing interaction strength
10 | MALRGVSVRLLSRGPGLHVLRTWVSSAAQTEKGGRTQSQLAKSSRPEFDWQDPLVLEEQLTTDEILIRDTFRTYCQERLMPRILLANRNKVFHREIISEMGELGVLGPTIKGYGCAGVSSVAYGLLARELERVDSGYRSAMSVQSSLVMHPIYAYGSEEQRQKYLPQLAKGELLGCFGLTEPNSGSDPSSMETRAHYNSSNKSYTLNGTKTWITNSPMADLFVVWARCEDGCIRGFLLEKGMRGLSAPRIQGKFSLRASATGMIIMDGVEVPEENVLPGASSLGGPFGCLNNARYGIAWGVLGASEFCLHTARQYALDRMQFGVPLARNQLIQKKLADMLTEITLGLHACLQLGRLKDQDKAAPEMVSLLKRNNCGKALDIARQARDMLGGNGISDEYHVIRHAMNLEAVNTYEGTHDIHALILGRAITGIQAFTASK [E90K] | increasing interaction strength
11 | MALRGVSVRLLSRGPGLHVLRTWVSSAAQTEKGGRTQSQLAKSSRPEFDWQDPLVLEEQLTTDEILIRDTFRTYCQERLMPRILLANRNEVFHREIISEMGELGVLGPTIKGYGYAGVSSVAYGLLARELERVDSGYRSAMSVQSSLVMHPIYAYGSEEQRQKYLPQLAKGELLGCFGLTEPNSGSDPSSMETRAHYNSSNKSYTLNGTKTWITNSPMADLFVVWARCEDGCIRGFLLEKGMRGLSAPRIQGKFSLRASATGMIIMDGVEVPEENVLPGASSLGGPFGCLNNARYGIAWGVLGASEFCLHTARQYALDRMQFGVPLARNQLIQKKLADMLTEITLGLHACLQLGRLKDQDKAAPEMVSLLKRNNCGKALDIARQARDMLGGNGISDEYHVIRHAMNLEAVNTYEGTHDIHALILGRAITGIQAFTASK [C115Y] | increasing interaction strength
12 | MALRGVSVRLLSRGPGLHVLRTWVSSAAQTEKGGRTQSQLAKSSRPEFDWQDPLVLEEQLTTDEILIRDTFRTYCQERLMPRILLANRNEVFHREIISEMGELGVLGPTIKGYGCAGVSSVAYGLLARELERVDSGYRSAMSVQSSLVMHPIYAYGSEEQRQKYLPQLAKGELLGCFGLTEPNSGSDPSSMETRAHYNSSNKSYTLNGTKTWITNSPMADLFVVWAPCEDGCIRGFLLEKGMRGLSAPRIQGKFSLRASATGMIIMDGVEVPEENVLPGASSLGGPFGCLNNARYGIAWGVLGASEFCLHTARQYALDRMQFGVPLARNQLIQKKLADMLTEITLGLHACLQLGRLKDQDKAAPEMVSLLKRNNCGKALDIARQARDMLGGNGISDEYHVIRHAMNLEAVNTYEGTHDIHALILGRAITGIQAFTASK [R227P] | decreasing interaction strength
13 | MALRGVSVRLLSRGPGLHVLRTWVSSAAQTEKGGRTQSQLAKSSRPEFDWQDPLVLEEQLTTDEILIRDTFRTYCQERLMPRILLANRNEVFHREIISEMRELGVLGPTIKGYGCAGVSSVAYGLLARELERVDSGYRSAMSVQSSLVMHPIYAYGSEEQRQKYLPQLAKGELLGCFGLTEPNSGSDPSSMETRAHYNSSNKSYTLNGTKTWITNSPMADLFVVWARCEDGCIRGFLLEKGMRGLSAPRIQGKFSLRASATGMIIMDGVEVPEENVLPGASSLGGPFGCLNNARYGIAWGVLGASEFCLHTARQYALDRMQFGVPLARNQLIQKKLADMLTEITLGLHACLQLGRLKDQDKAAPEMVSLLKRNNCGKALDIARQARDMLGGNGISDEYHVIRHAMNLEAVNTYEGTHDIHALILGRAITGIQAFTASK [G101R] | decreasing interaction strength
